This is an account of results in PMC9239997, “Structural basis for mitoguardin-2 mediated lipid transport at ER-mitochondrial membrane contact sites” (Nature Communications, 2022).

B1: mouse MIGA2 residues 275-570, wild type [mouse (Mus musculus)] / MSP domain of mouse VAPB (residues 1-125) fused to GST [mouse (Mus musculus)] (parent complex)
chain 1: GSLRLRADDEDSLTSEDSFFSATEIFESLQIGEYPLPLSRPAAAYEEALQLVKEGRVPCRTLRTELLGCYSDQDFLAKLHCVRQAFEGLLEERSNQIFFGEVGRQMVTGLMTKAEKSPKGFLESYEEMLSYALRPETWATTRLELEGRGVACMSFFDIVLDFILMDAFEDLENPPSSVLAVLRNRWLSDSFKETALATACWSVLKAKRRLLMVPDGFISHFYSVSEHVSPVLAFGFLGPKPQLSEVCAFFKHQIVQYLRDMFDLDNVRYTSVPALAEDILQLSRRRSEILLGYLGA
chain 2: MAKVEQVLSLEPQHELKFRGPFTDVVTTNLKLGNPTDRNVCFKVKTTVPRRYCVRPNSGVIDAGASLNVSVMLQPFDYDPNEKSKHKFMVQSMFAPPDTSDMEAVWKEAKPEDLMDSKLRCVFEL

In this assay the parent is B1. The assay is described as follows: GST pull-down; parent: 0.01; read off a plot.
Turning to chain 1 S21D, the screen value was ~0.4. On to chain 1 S18E, chain 1 S21D, for which the screen value was ~1.

As for chain 1 S18E, the screen value was ~0.01.
